# Laboratory results taken from the RNAGym collection of RNA variant scans (doi:10.1021/acssynbio.7b00057).
# B1: Pistol ribozyme (parent)
# chain: GGGUCGUUGUUCCAUAAUCGCGUGGAUAUGGCACGCAAGUUUCUACCGGGCACCGUAAAUGUCCGACUGGAGCCGUUCGGGCGGCUAUAAACAGACCUCAGGCCCGAAGCGUGGCGGCACCUGCCGCCGGUGGUAAAAAAGAUCGGAAGAGCACACGUCU
# Variants of: B1
# Experiment: aptazyme ON/OFF ratio, guanine; higher = stronger switching; co-transcriptional cleavage with and without guanine
row,Variant,aptazyme ON/OFF ratio
1,GGGUCGCACUGUUAUAAUCGCGUGGAUAUGGCACGCAAGUUUCUACCGGGCACCGUAAAUGUCCGACUGGAGCCGUUCGGGCGGCUAUAAACAGACCUCAGGCCCGAAGCGUGGCGGCACCUGCCGCCGGUGGUAAAAAAGAUCGGAAGAGCACACGUCU [U7C U8A G9C U11G C12U C13U],1.13
2,GGGUCGCACUGUGAUAAUCGCGUGGAUAUGGCACGCAAGUUUCUACCGGGCACCGUAAAUGUCCGACUGGAGCCGUUCGGGCGGCUAUAAACAGACCUCAGGCCCGAAGCGUGGCGGCACCUGCCGCCGGUGGUAAAAAAGAUCGGAAGAGCACACGUCU [U7C U8A G9C U11G C12U C13G],1.14
3,GGGUCGCACUGUAAUAAUCGCGUGGAUAUGGCACGCAAGUUUCUACCGGGCACCGUAAAUGUCCGACUGGAGCCGUUCGGGCGGCUAUAAACAGACCUCAGGCCCGAAGCGUGGCGGCACCUGCCGCCGGUGGUAAAAAAGAUCGGAAGAGCACACGUCU [U7C U8A G9C U11G C12U C13A],1.18
4,GGGUCGCAUUUUGAUAAUCGCGUGGAUAUGGCACGCAAGUUUCUACCGGGCACCGUAAAUGUCCGACUGGAGCCGUUCGGGCGGCUAUAAACAGACCUCAGGCCCGAAGCGUGGCGGCACCUGCCGCCGGUGGUAAAAAAGAUCGGAAGAGCACACGUCU [U7C U8A G9U C12U C13G],1.14
5,GGGUCGCAUUUUAAUAAUCGCGUGGAUAUGGCACGCAAGUUUCUACCGGGCACCGUAAAUGUCCGACUGGAGCCGUUCGGGCGGCUAUAAACAGACCUCAGGCCCGAAGCGUGGCGGCACCUGCCGCCGGUGGUAAAAAAGAUCGGAAGAGCACACGUCU [U7C U8A G9U C12U C13A],1.09
6,GGGUCGCAUUUUUAUAAUCGCGUGGAUAUGGCACGCAAGUUUCUACCGGGCACCGUAAAUGUCCGACUGGAGCCGUUCGGGCGGCUAUAAACAGACCUCAGGCCCGAAGCGUGGCGGCACCUGCCGCCGGUGGUAAAAAAGAUCGGAAGAGCACACGUCU [U7C U8A G9U C12U C13U],1.29
7,GGGUCGCAUAUUGAUAAUCGCGUGGAUAUGGCACGCAAGUUUCUACCGGGCACCGUAAAUGUCCGACUGGAGCCGUUCGGGCGGCUAUAAACAGACCUCAGGCCCGAAGCGUGGCGGCACCUGCCGCCGGUGGUAAAAAAGAUCGGAAGAGCACACGUCU [U7C U8A G9U U10A C12U C13G],1.16
8,GGGUCGCAUAUUUAUAAUCGCGUGGAUAUGGCACGCAAGUUUCUACCGGGCACCGUAAAUGUCCGACUGGAGCCGUUCGGGCGGCUAUAAACAGACCUCAGGCCCGAAGCGUGGCGGCACCUGCCGCCGGUGGUAAAAAAGAUCGGAAGAGCACACGUCU [U7C U8A G9U U10A C12U C13U],1.19
9,GGGUCGCAUAUUAAUAAUCGCGUGGAUAUGGCACGCAAGUUUCUACCGGGCACCGUAAAUGUCCGACUGGAGCCGUUCGGGCGGCUAUAAACAGACCUCAGGCCCGAAGCGUGGCGGCACCUGCCGCCGGUGGUAAAAAAGAUCGGAAGAGCACACGUCU [U7C U8A G9U U10A C12U C13A],1.24
10,GGGUCGCAUUUAAAUAAUCGCGUGGAUAUGGCACGCAAGUUUCUACCGGGCACCGUAAAUGUCCGACUGGAGCCGUUCGGGCGGCUAUAAACAGACCUCAGGCCCGAAGCGUGGCGGCACCUGCCGCCGGUGGUAAAAAAGAUCGGAAGAGCACACGUCU [U7C U8A G9U C12A C13A],1.14
11,GGGUCGCAUUUAUAUAAUCGCGUGGAUAUGGCACGCAAGUUUCUACCGGGCACCGUAAAUGUCCGACUGGAGCCGUUCGGGCGGCUAUAAACAGACCUCAGGCCCGAAGCGUGGCGGCACCUGCCGCCGGUGGUAAAAAAGAUCGGAAGAGCACACGUCU [U7C U8A G9U C12A C13U],1.15
12,GGGUCGCAUUUAGAUAAUCGCGUGGAUAUGGCACGCAAGUUUCUACCGGGCACCGUAAAUGUCCGACUGGAGCCGUUCGGGCGGCUAUAAACAGACCUCAGGCCCGAAGCGUGGCGGCACCUGCCGCCGGUGGUAAAAAAGAUCGGAAGAGCACACGUCU [U7C U8A G9U C12A C13G],1.18
13,GGGUCGCAUUUCGAUAAUCGCGUGGAUAUGGCACGCAAGUUUCUACCGGGCACCGUAAAUGUCCGACUGGAGCCGUUCGGGCGGCUAUAAACAGACCUCAGGCCCGAAGCGUGGCGGCACCUGCCGCCGGUGGUAAAAAAGAUCGGAAGAGCACACGUCU [U7C U8A G9U C13G],1.03
14,GGGUCGCAUUUCAAUAAUCGCGUGGAUAUGGCACGCAAGUUUCUACCGGGCACCGUAAAUGUCCGACUGGAGCCGUUCGGGCGGCUAUAAACAGACCUCAGGCCCGAAGCGUGGCGGCACCUGCCGCCGGUGGUAAAAAAGAUCGGAAGAGCACACGUCU [U7C U8A G9U C13A],1.16
15,GGGUCGCAUUUCUAUAAUCGCGUGGAUAUGGCACGCAAGUUUCUACCGGGCACCGUAAAUGUCCGACUGGAGCCGUUCGGGCGGCUAUAAACAGACCUCAGGCCCGAAGCGUGGCGGCACCUGCCGCCGGUGGUAAAAAAGAUCGGAAGAGCACACGUCU [U7C U8A G9U C13U],1.28
16,GGGUCGCAUUUGGAUAAUCGCGUGGAUAUGGCACGCAAGUUUCUACCGGGCACCGUAAAUGUCCGACUGGAGCCGUUCGGGCGGCUAUAAACAGACCUCAGGCCCGAAGCGUGGCGGCACCUGCCGCCGGUGGUAAAAAAGAUCGGAAGAGCACACGUCU [U7C U8A G9U C12G C13G],1.21
17,GGGUCGCAUUUGAAUAAUCGCGUGGAUAUGGCACGCAAGUUUCUACCGGGCACCGUAAAUGUCCGACUGGAGCCGUUCGGGCGGCUAUAAACAGACCUCAGGCCCGAAGCGUGGCGGCACCUGCCGCCGGUGGUAAAAAAGAUCGGAAGAGCACACGUCU [U7C U8A G9U C12G C13A],1.21
18,GGGUCGCAUUUGUAUAAUCGCGUGGAUAUGGCACGCAAGUUUCUACCGGGCACCGUAAAUGUCCGACUGGAGCCGUUCGGGCGGCUAUAAACAGACCUCAGGCCCGAAGCGUGGCGGCACCUGCCGCCGGUGGUAAAAAAGAUCGGAAGAGCACACGUCU [U7C U8A G9U C12G C13U],1.22

row,Variant,aptazyme ON/OFF ratio
1,GGGUCGCACUGUCAUAAUCGCGUGGAUAUGGCACGCAAGUUUCUACCGGGCACCGUAAAUGUCCGACUGGAGCCGUUCGGGCGGCUAUAAACAGACCUCAGGCCCGAAGCGUGGCGGCACCUGCCGCCGGUGGUAAAAAAGAUCGGAAGAGCACACGUCU [U7C U8A G9C U11G C12U],1.29
2,GGGUCGCAUAUAGAUAAUCGCGUGGAUAUGGCACGCAAGUUUCUACCGGGCACCGUAAAUGUCCGACUGGAGCCGUUCGGGCGGCUAUAAACAGACCUCAGGCCCGAAGCGUGGCGGCACCUGCCGCCGGUGGUAAAAAAGAUCGGAAGAGCACACGUCU [U7C U8A G9U U10A C12A C13G],1.16
3,GGGUCGCAUAUAUAUAAUCGCGUGGAUAUGGCACGCAAGUUUCUACCGGGCACCGUAAAUGUCCGACUGGAGCCGUUCGGGCGGCUAUAAACAGACCUCAGGCCCGAAGCGUGGCGGCACCUGCCGCCGGUGGUAAAAAAGAUCGGAAGAGCACACGUCU [U7C U8A G9U U10A C12A C13U],1.22
4,GGGUCGCAUAUAAAUAAUCGCGUGGAUAUGGCACGCAAGUUUCUACCGGGCACCGUAAAUGUCCGACUGGAGCCGUUCGGGCGGCUAUAAACAGACCUCAGGCCCGAAGCGUGGCGGCACCUGCCGCCGGUGGUAAAAAAGAUCGGAAGAGCACACGUCU [U7C U8A G9U U10A C12A C13A],1.29
5,GGGUCGCAUUUCCAUAAUCGCGUGGAUAUGGCACGCAAGUUUCUACCGGGCACCGUAAAUGUCCGACUGGAGCCGUUCGGGCGGCUAUAAACAGACCUCAGGCCCGAAGCGUGGCGGCACCUGCCGCCGGUGGUAAAAAAGAUCGGAAGAGCACACGUCU [U7C U8A G9U],1.59
6,GGGUCGCAUAUCCAUAAUCGCGUGGAUAUGGCACGCAAGUUUCUACCGGGCACCGUAAAUGUCCGACUGGAGCCGUUCGGGCGGCUAUAAACAGACCUCAGGCCCGAAGCGUGGCGGCACCUGCCGCCGGUGGUAAAAAAGAUCGGAAGAGCACACGUCU [U7C U8A G9U U10A],1.16
7,GGGUCGCAUAUGGAUAAUCGCGUGGAUAUGGCACGCAAGUUUCUACCGGGCACCGUAAAUGUCCGACUGGAGCCGUUCGGGCGGCUAUAAACAGACCUCAGGCCCGAAGCGUGGCGGCACCUGCCGCCGGUGGUAAAAAAGAUCGGAAGAGCACACGUCU [U7C U8A G9U U10A C12G C13G],1.17
8,GGGUCGCAUAUGUAUAAUCGCGUGGAUAUGGCACGCAAGUUUCUACCGGGCACCGUAAAUGUCCGACUGGAGCCGUUCGGGCGGCUAUAAACAGACCUCAGGCCCGAAGCGUGGCGGCACCUGCCGCCGGUGGUAAAAAAGAUCGGAAGAGCACACGUCU [U7C U8A G9U U10A C12G C13U],1.25
9,GGGUCGCAUAUGAAUAAUCGCGUGGAUAUGGCACGCAAGUUUCUACCGGGCACCGUAAAUGUCCGACUGGAGCCGUUCGGGCGGCUAUAAACAGACCUCAGGCCCGAAGCGUGGCGGCACCUGCCGCCGGUGGUAAAAAAGAUCGGAAGAGCACACGUCU [U7C U8A G9U U10A C12G C13A],1.12
10,GGGUCGCAUUUACAUAAUCGCGUGGAUAUGGCACGCAAGUUUCUACCGGGCACCGUAAAUGUCCGACUGGAGCCGUUCGGGCGGCUAUAAACAGACCUCAGGCCCGAAGCGUGGCGGCACCUGCCGCCGGUGGUAAAAAAGAUCGGAAGAGCACACGUCU [U7C U8A G9U C12A],1.06
11,GGGUCGCAUUUGCAUAAUCGCGUGGAUAUGGCACGCAAGUUUCUACCGGGCACCGUAAAUGUCCGACUGGAGCCGUUCGGGCGGCUAUAAACAGACCUCAGGCCCGAAGCGUGGCGGCACCUGCCGCCGGUGGUAAAAAAGAUCGGAAGAGCACACGUCU [U7C U8A G9U C12G],1.16
12,GGGUCGCAUUUUCAUAAUCGCGUGGAUAUGGCACGCAAGUUUCUACCGGGCACCGUAAAUGUCCGACUGGAGCCGUUCGGGCGGCUAUAAACAGACCUCAGGCCCGAAGCGUGGCGGCACCUGCCGCCGGUGGUAAAAAAGAUCGGAAGAGCACACGUCU [U7C U8A G9U C12U],1.34
13,GGGUCGCACUGCGAUAAUCGCGUGGAUAUGGCACGCAAGUUUCUACCGGGCACCGUAAAUGUCCGACUGGAGCCGUUCGGGCGGCUAUAAACAGACCUCAGGCCCGAAGCGUGGCGGCACCUGCCGCCGGUGGUAAAAAAGAUCGGAAGAGCACACGUCU [U7C U8A G9C U11G C13G],1.05
14,GGGUCGCACUGCAAUAAUCGCGUGGAUAUGGCACGCAAGUUUCUACCGGGCACCGUAAAUGUCCGACUGGAGCCGUUCGGGCGGCUAUAAACAGACCUCAGGCCCGAAGCGUGGCGGCACCUGCCGCCGGUGGUAAAAAAGAUCGGAAGAGCACACGUCU [U7C U8A G9C U11G C13A],1.07
15,GGGUCGCACUGCUAUAAUCGCGUGGAUAUGGCACGCAAGUUUCUACCGGGCACCGUAAAUGUCCGACUGGAGCCGUUCGGGCGGCUAUAAACAGACCUCAGGCCCGAAGCGUGGCGGCACCUGCCGCCGGUGGUAAAAAAGAUCGGAAGAGCACACGUCU [U7C U8A G9C U11G C13U],1.15
16,GGGUCGCAUAUUCAUAAUCGCGUGGAUAUGGCACGCAAGUUUCUACCGGGCACCGUAAAUGUCCGACUGGAGCCGUUCGGGCGGCUAUAAACAGACCUCAGGCCCGAAGCGUGGCGGCACCUGCCGCCGGUGGUAAAAAAGAUCGGAAGAGCACACGUCU [U7C U8A G9U U10A C12U],1.19
17,GGGUCGCAUAUACAUAAUCGCGUGGAUAUGGCACGCAAGUUUCUACCGGGCACCGUAAAUGUCCGACUGGAGCCGUUCGGGCGGCUAUAAACAGACCUCAGGCCCGAAGCGUGGCGGCACCUGCCGCCGGUGGUAAAAAAGAUCGGAAGAGCACACGUCU [U7C U8A G9U U10A C12A],1.19
18,GGGUCGCAUAUGCAUAAUCGCGUGGAUAUGGCACGCAAGUUUCUACCGGGCACCGUAAAUGUCCGACUGGAGCCGUUCGGGCGGCUAUAAACAGACCUCAGGCCCGAAGCGUGGCGGCACCUGCCGCCGGUGGUAAAAAAGAUCGGAAGAGCACACGUCU [U7C U8A G9U U10A C12G],1.18
